Assays:
Assay in all cases: two-hybrid library CCNG1;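 note: natural log of median RNA to DNA barcode read ratio; higher means stronger binding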
[1] = biological target: T1, 4H1348-bH
T1 chain: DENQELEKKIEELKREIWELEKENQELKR

[2] = biological target: T2, 4H1373-bH
T2 chain: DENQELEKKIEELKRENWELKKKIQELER

[3] = biological target: T3, 4H1449-bH
T3 chain: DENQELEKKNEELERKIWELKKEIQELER

[4] = biological target: T4, 4H1544-bH
T4 chain: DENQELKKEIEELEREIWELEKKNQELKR

[5] = biological target: T5, 4H1710-bH
T5 chain: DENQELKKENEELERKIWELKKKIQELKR

[6] = biological target: T6, 4H1899-bH
T6 chain: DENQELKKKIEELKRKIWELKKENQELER

[7] = biological target: T7, 4H1985-bH
T7 chain: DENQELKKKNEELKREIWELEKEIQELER

[8] = biological target: T8, 4H3162-bH
T8 chain: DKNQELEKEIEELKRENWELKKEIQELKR

[9] = biological target: T9, 4H3175-bH
T9 chain: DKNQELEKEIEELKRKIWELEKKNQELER

[10] = biological target: T10, 4H3185-bN
T10 chain: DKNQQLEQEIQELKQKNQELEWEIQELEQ

[11] = biological target: T11, 4H3277-bH
T11 chain: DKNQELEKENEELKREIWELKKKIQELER

[12] = biological target: T12, 4H3298-bH
T12 chain: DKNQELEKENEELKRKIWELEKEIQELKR

[13] = biological target: T13, 4H3462-bH
T13 chain: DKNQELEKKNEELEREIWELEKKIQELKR

[14] = biological target: T14, 4H3497-bH
T14 chain: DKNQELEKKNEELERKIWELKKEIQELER

[15] = biological target: T15, 4H3613-bH
T15 chain: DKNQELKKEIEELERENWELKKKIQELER

[16] = biological target: T16, 4H3628-bH
T16 chain: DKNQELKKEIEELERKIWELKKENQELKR

[17] = biological target: T17, 4H3817-bH
T17 chain: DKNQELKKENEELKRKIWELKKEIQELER

[18] = biological target: T18, 4H3858-bH
T18 chain: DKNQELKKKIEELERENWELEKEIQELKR

[19] = biological target: T19, 4H3926-bH
T19 chain: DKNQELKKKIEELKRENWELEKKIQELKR

[20] = biological target: T20, 4H3974-bH
T20 chain: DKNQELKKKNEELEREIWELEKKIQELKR

[21] = biological target: T21, 4H570-bH
T21 chain: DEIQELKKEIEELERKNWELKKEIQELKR

[22] = biological target: T22, 4H591-bH
T22 chain: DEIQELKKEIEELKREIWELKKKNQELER

[23] = biological target: T23, 4H626-bH
T23 chain: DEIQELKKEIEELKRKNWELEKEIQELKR

[24] = biological target: T24, 4H850-bH
T24 chain: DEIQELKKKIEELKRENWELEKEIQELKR

[25] = biological target: T25, 4H906-bH
T25 chain: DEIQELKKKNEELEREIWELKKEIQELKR

Binder: DENQELEKKIEELKREIWELEKENQELKR [4H1348-bH]
- interaction score [1]: 0.814
- interaction score [2]: 0.103
- interaction score [3]: 1.19
- interaction score [4]: 1.3
- interaction score [5]: -0.0273
- interaction score [6]: 0.883
- interaction score [7]: 0.722
- interaction score [8]: 0.415
- interaction score [9]: 0.435
- interaction score [10]: -1.2
- interaction score [11]: -0.13
- interaction score [12]: 0.0904
- interaction score [13]: 0.558
- interaction score [14]: 0.0523
- interaction score [15]: -1.69
- interaction score [16]: 1.42
- interaction score [17]: 0.205
- interaction score [18]: 0.0862
- interaction score [19]: 0.857
- interaction score [20]: 1.36
- interaction score [21]: -0.807
- interaction score [22]: -1.39
- interaction score [23]: -1.01
- interaction score [24]: 0.659
- interaction score [25]: -0.14
